Reference: article PMC5757175

Experiments:
[1] = molecular target: myosin subfragment-1 (S1) from rabbit skeletal muscle (rabbit)
[2] = molecular target: myosin subfragment-1 (S1) from rabbit skeletal muscle (rabbit); remark: listed apart in the source

central domain of Mus musculus UNC-45B (domain or fragment)
apparent Kd of the inhibition of actin filament gliding velocity (myosin S1 fixed on nitrocellulose-coated coverslips, central domain titrated in the assay buffer; 2.2 uM halted gliding) [1]: 400 nM

B1: full-length Mus musculus UNC-45B (natural protein)
chain: MAEAEAAQLKEEGNRHFQLQDYKAATKSYSQALKLTKDKALLATLYRNRAACGLKMESYAQAASDASRAIDINSADIKALYRRCQALEHLGKLDQAFKDVQRCATLEPRNQNFQETLRRLNTSIQEQLRVQFSTDSRVQTMFEILLNENSEADKREKAANNLIVLGREEAGAERIFQSNGVALLLQLMNTQRPELLLAAVRTLSGMCSGHRARATAILHAVRIDRICSLMALENEEMSLAVCNLLQAIIDSLSGEDKREHRGKEEALVLDTKKDLKQITSHLLDMLVSKKVSGQGRDQALNLLNKNVPRKDLSIHDNSRTIYVVDNGLRKILKVVGQVPDLPSCLPLTDNTRMLASILINKLYDDLRCDPERDHFRKICEEYITSKFDPQDMDKNVNAIQTVSGILQGPFDLGNQLLGMKGVMEMMVALCGSEREADQLVAVEALIHASTKLSRATFIITNGVTLLKQIYKTTKNEKIKIRTLVGLCKLGSAGGSDYGLRQFAEGSTEKLAKQCRKWLCNTAIDTRTRRWAVEGLAYLTLDADVKDDFVQDIPALQAMFELAKARTSDKTILYSVANTLVNCTNSYDVKEVVPELVQLAKFSKQHVPEEHPKDKKDFVDLRVKRLLKAGVISALACMVKADSAILTDQTKELLARVFLALCDNPKDRGTIVAQGGGKALIPLALEGTDVGKVKAAHGLAKIAAVSNPDIAFPGERVYEVVRPLVSLLDTQRDGLQNYEALLGLTNLSGRSDKLRQKIFKEKALPDIENYMFENHDQLRQAATECMCNMVLNKEVQERFLADGNDRLKLVVLLCGEDDHKLQNAAAGALAMLTAAHKKLCLKMTEVTTQWLEILQRLCLHDQLSVQHRGLVIAHNLLSADAELARKLVESELLEILTVVGKQEPDEKRAAVVQTARECLIKCMDYGFIKPVS
apparent Kd of the inhibition of actin filament gliding velocity (myosin S1 fixed on nitrocellulose-coated coverslips, UNC-45B titrated in the assay buffer; 2.8 uM inhibited translocation completely) [2]: 200 nM
